The values that follow come from patent US20200048331A1 (CANIMGUIDE THERAPEUTICS, published 2020).

The target in assay [1] is artificial cell surface (ACS): biotinylated cell surface proteins from human mononuclear blood cells coupled to streptavidin-sepharose. As to the kind of experiment: ACS affinity column adsorption of ASP-N dHSA peptides (3200-9000 Da), MALDI-TOF ms.
Assay [2] shares this target. Briefly: ACS affinity column adsorption of tryptic dHSA peptides, MALDI-TOF ms.
Assay [3] shares this target. Briefly: ACS affinity column adsorption of ASP-N dHSA peptides (700-3600 Da), MALDI-TOF ms.
Assay [4] has the same target. As to the kind of experiment: ACS affinity column adsorption of tryptic dHSA peptides, MALDI-TOF ms; second of two lines for this peptide.
The target is the same in assay [5]. Briefly: ACS affinity column adsorption of tryptic dHSA peptides, MALDI-TOF ms; first of two lines for this peptide.
The target of assay [6] is T1, LFA-1 (CD11a) on immune cells (human, UniProt P20701 26-1170; P05107 23-769).
T1 construct: whole, on cells; On acetone-fixed cytospin preparations of human PBMC or THP-1 cells; also called β2-integrin
T1 sequence (P20701 26-1170, chain 1 of 2): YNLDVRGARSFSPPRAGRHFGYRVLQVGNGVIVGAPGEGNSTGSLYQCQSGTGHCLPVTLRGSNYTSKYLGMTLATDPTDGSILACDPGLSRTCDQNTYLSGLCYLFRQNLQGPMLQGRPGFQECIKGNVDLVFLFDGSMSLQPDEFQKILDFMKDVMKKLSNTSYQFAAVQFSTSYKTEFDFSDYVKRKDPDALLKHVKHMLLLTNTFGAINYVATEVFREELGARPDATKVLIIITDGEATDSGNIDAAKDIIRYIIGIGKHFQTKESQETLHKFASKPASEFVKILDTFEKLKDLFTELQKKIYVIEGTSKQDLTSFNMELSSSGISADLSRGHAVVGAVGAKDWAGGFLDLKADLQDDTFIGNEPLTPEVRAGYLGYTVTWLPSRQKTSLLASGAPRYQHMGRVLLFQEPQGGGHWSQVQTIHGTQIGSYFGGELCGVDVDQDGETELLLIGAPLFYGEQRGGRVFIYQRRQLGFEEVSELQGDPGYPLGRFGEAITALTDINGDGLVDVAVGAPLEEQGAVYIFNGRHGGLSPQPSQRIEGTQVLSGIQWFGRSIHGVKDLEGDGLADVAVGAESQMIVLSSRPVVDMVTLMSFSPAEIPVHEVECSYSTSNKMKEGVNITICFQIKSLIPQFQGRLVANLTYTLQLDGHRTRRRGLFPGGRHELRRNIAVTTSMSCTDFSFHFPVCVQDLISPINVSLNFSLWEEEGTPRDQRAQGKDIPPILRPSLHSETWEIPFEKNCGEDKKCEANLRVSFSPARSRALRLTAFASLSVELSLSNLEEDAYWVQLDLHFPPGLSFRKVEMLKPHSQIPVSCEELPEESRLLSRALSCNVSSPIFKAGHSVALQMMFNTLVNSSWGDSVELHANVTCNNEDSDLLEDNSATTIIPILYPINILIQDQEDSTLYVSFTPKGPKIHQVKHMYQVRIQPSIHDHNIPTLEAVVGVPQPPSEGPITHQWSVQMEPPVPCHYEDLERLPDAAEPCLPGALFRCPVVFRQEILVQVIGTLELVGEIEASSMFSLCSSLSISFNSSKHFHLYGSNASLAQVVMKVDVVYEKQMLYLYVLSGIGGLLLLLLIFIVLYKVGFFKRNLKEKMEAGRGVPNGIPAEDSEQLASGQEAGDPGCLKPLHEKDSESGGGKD
T1 sequence (P05107 23-769, chain 2 of 2): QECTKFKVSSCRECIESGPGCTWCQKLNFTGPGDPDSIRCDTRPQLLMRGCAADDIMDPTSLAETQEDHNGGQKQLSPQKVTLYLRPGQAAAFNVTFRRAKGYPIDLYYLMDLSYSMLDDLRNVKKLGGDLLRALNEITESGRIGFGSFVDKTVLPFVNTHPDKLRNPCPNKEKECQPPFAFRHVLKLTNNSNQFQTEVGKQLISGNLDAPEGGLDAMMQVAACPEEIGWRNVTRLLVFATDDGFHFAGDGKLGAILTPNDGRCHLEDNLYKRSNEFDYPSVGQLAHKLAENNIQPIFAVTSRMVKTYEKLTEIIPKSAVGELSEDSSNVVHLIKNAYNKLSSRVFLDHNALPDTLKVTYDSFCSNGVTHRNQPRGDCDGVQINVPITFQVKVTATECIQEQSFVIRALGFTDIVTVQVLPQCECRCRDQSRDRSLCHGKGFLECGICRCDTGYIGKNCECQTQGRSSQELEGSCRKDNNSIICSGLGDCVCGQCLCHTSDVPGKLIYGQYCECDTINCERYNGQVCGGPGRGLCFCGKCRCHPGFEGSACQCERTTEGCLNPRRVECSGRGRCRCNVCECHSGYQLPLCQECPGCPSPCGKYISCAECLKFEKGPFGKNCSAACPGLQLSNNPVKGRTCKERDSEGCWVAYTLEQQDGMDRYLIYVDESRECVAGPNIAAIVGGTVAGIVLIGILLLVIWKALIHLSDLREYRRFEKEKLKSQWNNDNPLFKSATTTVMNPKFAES
Briefly: effect of peptide pre-incubation on HI111 staining of LFA-1 on PBMC and THP-1 cytospins.

In assay [7] the target is T1, LFA-1 (CD11a) on immune cells. As to the kind of experiment: inferred from modulation of HI111 staining of LFA-1 on mononuclear blood cells.
For assay [8] the target is unchanged. Briefly: effect of peptide pre-incubation on HI111 staining of LFA-1 on PBMC cytospins.

Where no end group is shown, it is not given here. The star is where a group is joined. Cam = NC(=O)C*

HSA ASP-N peptide residues 96-130 … yielded a Per cent adsorbed (per cent adsorbed, printed as fraction) in assay [1] of 1.

Turning to HSA tryptic peptide residues 439-452 …, the Per cent adsorbed (per cent adsorbed, printed as fraction) in assay [2] is 0.59.

On to HSA tryptic peptide residues 438-452 …, for which, in assay [2], the Per cent adsorbed (per cent adsorbed, printed as fraction) is 0.64.

B1: HSA ASP-N peptide residues 293-319 … (peptide)
peptide: DSISSKLKEC(Cam)C(Cam)EKPLLEKSHC(Cam)IAEVEN
B1 gave a Per cent adsorbed (per cent adsorbed, printed as fraction) in assay [3] of 0.65.

B2: HSA tryptic peptide residues 500-508 … (peptide)
peptide: C(Cam)C(Cam)TESLVNR
B2 registered a Per cent adsorbed (per cent adsorbed, printed as fraction) in assay [2] of 0.26.

B3: HSA tryptic peptide residues 118-130 … (peptide)
peptide: QEPERNEC(Cam)FLQHK
Turning to B3, the Per cent adsorbed (per cent adsorbed, printed as fraction) is 0.18 in assay [4] and 0.26 in assay [5].

B4: synthesized albumin peptide 2606 KLDELRDEGKAS (peptide)
peptide: KLDELRDEGKAS
notes: Synthetic (CSBio); also called E5K peptide 2606
In the case of B4, the binding result in assay [6] was “binds”.

B5: HSA tryptic peptide residues 123-130 NECFLQHK (peptide)
peptide: NECFLQHK
modifications: Cys alkylated with iodoacetamide (from dHSA)
In the case of B5, the Per cent adsorbed (per cent adsorbed, printed as fraction) in assay [2] was 0.22.

B6: HSA tryptic peptide residues 384-396 … (peptide)
peptide: C(Cam)C(Cam)AAADPHEC(Cam)YAK
Consider B6, for which, in assay [2], the Per cent adsorbed (per cent adsorbed, printed as fraction) came out at 0.32.

B7: HSA ASP-N peptide residues 518-535 … (peptide)
peptide: DETYVPKEFNAETFTHA
In turn, B7 registered a Per cent adsorbed (per cent adsorbed, printed as fraction) in assay [3] of 0.86.

B8: HSA ASP-N peptide residues 475-517 … (peptide)
peptide: YLSVVLNQLC(Cam)VLHEKTPVSDRVTKC(Cam)C(Cam)TESLVNRRPC(Cam)FSALEV
Regarding B8, the Per cent adsorbed (per cent adsorbed, printed as fraction) in assay [1] came to 0.37.

B9: HSA ASP-N peptide residues 495-517 … (peptide)
peptide: DRVTKC(Cam)C(Cam)TESLVNRRPC(Cam)FSALEV
On to B9, for which the Per cent adsorbed (per cent adsorbed, printed as fraction) in assay [3] is 0.87.

B10: HSA ASP-N peptide residues 283-319 … (peptide)
peptide: LAKYIC(Cam)ENQDSISSKLKEC(Cam)C(Cam)EKPLLEKSHC(Cam)IAEVEN
For B10, the Per cent adsorbed (per cent adsorbed, printed as fraction) in assay [1] amounted to 1.

B11: HSA tryptic peptide residues 287-298 … (peptide)
peptide: YIC(Cam)ENQDSISSK
As to B11, the Per cent adsorbed (per cent adsorbed, printed as fraction) in assay [2] was 0.03.

B12: HSA tryptic peptide residues 185-198 … (peptide)
peptide: YKAAFTEC(Cam)C(Cam)QAADK
In turn, B12 showed a Per cent adsorbed (per cent adsorbed, printed as fraction) in assay [2] of -0.37.

B13: HSA ASP-N peptide residues 364-398 … (peptide)
peptide: YSVVLLLRLAKTYETTLEKC(Cam)C(Cam)AAADPHEC(Cam)YAKVF
In turn, B13 had a Per cent adsorbed (per cent adsorbed, printed as fraction) in assay [1] of 1.

B14: HSA ASP-N peptide residues 586-609 … (peptide)
peptide: DDKETC(Cam)FAEEGKKLVAASQAALGL
On to B14, for which the Per cent adsorbed (per cent adsorbed, printed as fraction) in assay [3] worked out at 1.

B15: HSA tryptic peptide residues 187-198 … (peptide)
peptide: AAFTEC(Cam)C(Cam)QAADK
In turn, B15 returned a Per cent adsorbed (per cent adsorbed, printed as fraction) in assay [2] of 0.29.

B16: HSA tryptic peptide residues 414-426 … (peptide)
peptide: QNC(Cam)ELFEQLGEYK
In turn, B16 yielded a Per cent adsorbed (per cent adsorbed, printed as fraction) in assay [2] of 0.2.

B17: HSA tryptic peptide residues 066-075 … (peptide)
peptide: LVNEVTEFAK
Molecule B17 showed a Per cent adsorbed (per cent adsorbed, printed as fraction) in assay [2] of -0.02.

B18: HSA ASP-N peptide residues 37-79 … (peptide)
peptide: LGEENFKALVLIAFAQYLQQC(Cam)PFEDHVKLVNEVTEFAKTC(Cam)VA
B18 returned a Per cent adsorbed (per cent adsorbed, printed as fraction) in assay [1] of 1.

B19: HSA tryptic peptide residues 161-168 KYLYEIAR (peptide)
peptide: KYLYEIAR
In assay [2], B19 displayed a Per cent adsorbed (per cent adsorbed, printed as fraction) of 0.71.

B20: HSA ASP-N peptide residues 96-112 … (peptide)
peptide: DKLC(Cam)TVATLRETYGEM
As to B20, the Per cent adsorbed (per cent adsorbed, printed as fraction) in assay [3] stood at 0.65.

B21: HSA tryptic peptide residues 427-434 FQNALLVR (peptide)
peptide: FQNALLVR
For B21, the Per cent adsorbed (per cent adsorbed, printed as fraction) in assay [2] was 0.41.

B22: HSA tryptic peptide residues 299-310 … (peptide)
peptide: LKEC(Cam)C(Cam)EKPLLEK
On to B22, for which, in assay [2], the Per cent adsorbed (per cent adsorbed, printed as fraction) came out at 0.36.

B23: synthesized albumin peptide 3028 VFDEFKPLVEEPQNLIK (peptide)
peptide: VFDEFKPLVEEPQNLIK
notes: Synthetic (CSBio); also called 80
For the molecule B23, the binding result in assay [7] is “binds”.

B24: HSA tryptic peptide residues 265-281 … (peptide)
peptide: VHTEC(Cam)C(Cam)HGDLLEC(Cam)ADDR
Turning to B24, the Per cent adsorbed (per cent adsorbed, printed as fraction) in assay [2] is 0.13.

B25: HSA tryptic peptide residues 131-138 DDNPNLPR (peptide)
peptide: DDNPNLPR
The molecule B25 came in with a Per cent adsorbed (per cent adsorbed, printed as fraction) in assay [2] of 0.01.

B26: HSA ASP-N peptide residues 348-388 … (peptide)
peptide: VFLGMFLYEYARRHPDYSVVLLLRLAKTYETTLEKC(Cam)C(Cam)AAA
B26 had a Per cent adsorbed (per cent adsorbed, printed as fraction) in assay [1] of 1.

B27: HSA tryptic peptide residues 206-214 … (peptide)
peptide: LDELRDEGK
Take B27: in assay [2], the Per cent adsorbed (per cent adsorbed, printed as fraction) is 0.02.

B28: HSA ASP-N peptide residues 536-572 … (peptide)
peptide: IC(Cam)TLSEKERQIKKQTALVELVKHKPKATKEQLKAVM
B28 gave a Per cent adsorbed (per cent adsorbed, printed as fraction) in assay [1] of 1.

B29: HSA ASP-N peptide residues 62-79 … (peptide)
peptide: DHVKLVNEVTEFAKTC(Cam)VA
In turn, B29 gave a Per cent adsorbed (per cent adsorbed, printed as fraction) in assay [3] of 1.

B30: HSA tryptic peptide residues 397-413 … (peptide)
peptide: KVFDEFKPLVEEPQNLIKQ
Molecule B30 returned a Per cent adsorbed (per cent adsorbed, printed as fraction) in assay [2] of 0.6.

B31: HSA tryptic peptide residues 162-168 YLYEIAR (peptide)
peptide: YLYEIAR
B31: in assay [2], the Per cent adsorbed (per cent adsorbed, printed as fraction) was 0.34.

B32: HSA tryptic peptide residues 570-581 … (peptide)
peptide: AVMDDFAAFVEK
As for B32, the Per cent adsorbed (per cent adsorbed, printed as fraction) in assay [2] came out at 0.23.

B33: HSA tryptic peptide residues 098-105 LCTVATLR (peptide)
peptide: LCTVATLR
modifications: Cys alkylated with iodoacetamide (from dHSA)
For the molecule B33, the Per cent adsorbed (per cent adsorbed, printed as fraction) in assay [2] came to 0.35.

B34: synthesized albumin peptide 2605 NEETFLKKYLYE (peptide)
peptide: NEETFLKKYLYE
notes: Synthetic (CSBio); also called E5K peptide 2605
As to B34, the binding result in assay [8] is reported as “binds”.

B35: HSA ASP-N peptide residues 495-535 … (peptide)
peptide: RVTKC(Cam)C(Cam)TESLVNRRPC(Cam)FSALEVDETYVPKEFNAETFTFHA
For the molecule B35, the Per cent adsorbed (per cent adsorbed, printed as fraction) in assay [1] was determined as 1.

B36: HSA tryptic peptide residues 089-097 … (peptide)
peptide: SLHTLFGDK
As for B36, in assay [2], the Per cent adsorbed (per cent adsorbed, printed as fraction) was determined as 0.36.

B37: HSA tryptic peptide residues 35-44 … (peptide)
peptide: FKDLGEENFK
Molecule B37 showed a Per cent adsorbed (per cent adsorbed, printed as fraction) in assay [2] of 0.08.

B38: HSA tryptic peptide residues 106-117 … (peptide)
peptide: ETYGEMADC(Cam)C(Cam)AK
B38 yielded a Per cent adsorbed (per cent adsorbed, printed as fraction) in assay [2] of -0.08.

B39: HSA tryptic peptide residues 509-524 … (peptide)
peptide: RPC(Cam)FSALEVDETYVPK
As to B39, the Per cent adsorbed (per cent adsorbed, printed as fraction) in assay [2] worked out at 0.42.
